Results as given in paper PMC11696143, “A higher order PUF complex is central to regulation of C. elegans germline stem cells” (Nature Communications, 2024).
Positions count from the first letter of the chain named. In names and notes the source's numbering stands. Several values for one entry are separate records, joined by “and”; a condition that tells them apart may be missing. Equal entries are not always repeated.

T1: FBF-2 RBD+CT (Caenorhabditis elegans, UniProt Q09312 164-632)
T1 sequence: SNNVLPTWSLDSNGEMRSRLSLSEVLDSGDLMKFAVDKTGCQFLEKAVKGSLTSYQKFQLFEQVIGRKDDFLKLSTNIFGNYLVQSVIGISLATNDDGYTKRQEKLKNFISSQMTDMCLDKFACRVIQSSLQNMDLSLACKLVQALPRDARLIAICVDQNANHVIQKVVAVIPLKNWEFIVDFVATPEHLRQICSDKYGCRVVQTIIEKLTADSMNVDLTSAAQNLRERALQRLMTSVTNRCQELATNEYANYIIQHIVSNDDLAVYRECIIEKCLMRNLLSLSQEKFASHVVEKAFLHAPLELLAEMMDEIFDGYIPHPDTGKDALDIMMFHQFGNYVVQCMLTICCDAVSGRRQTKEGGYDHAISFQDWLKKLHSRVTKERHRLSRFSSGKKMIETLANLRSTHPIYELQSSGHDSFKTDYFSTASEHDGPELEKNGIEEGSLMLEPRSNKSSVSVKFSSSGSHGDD

T2: FBF-2 RBD (Caenorhabditis elegans, UniProt Q09312 164-575)
T2 sequence: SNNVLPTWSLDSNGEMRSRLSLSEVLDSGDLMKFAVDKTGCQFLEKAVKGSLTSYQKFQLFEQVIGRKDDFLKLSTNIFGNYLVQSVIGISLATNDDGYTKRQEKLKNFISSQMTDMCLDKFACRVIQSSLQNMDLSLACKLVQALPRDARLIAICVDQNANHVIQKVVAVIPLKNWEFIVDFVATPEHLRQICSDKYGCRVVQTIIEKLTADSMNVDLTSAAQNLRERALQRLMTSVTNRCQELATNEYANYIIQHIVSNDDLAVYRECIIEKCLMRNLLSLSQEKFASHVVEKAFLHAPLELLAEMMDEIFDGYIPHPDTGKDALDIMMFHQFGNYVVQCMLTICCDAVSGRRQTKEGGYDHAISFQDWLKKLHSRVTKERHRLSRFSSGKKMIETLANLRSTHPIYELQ

T3: FBF-2 RBD+CT L610A (Caenorhabditis elegans, UniProt Q09312 164-632, L610A)
T3 sequence: T1 sequence with L447A

T4: LST-1 19-98 (Caenorhabditis elegans, UniProt P91820 19-98)
T4 sequence: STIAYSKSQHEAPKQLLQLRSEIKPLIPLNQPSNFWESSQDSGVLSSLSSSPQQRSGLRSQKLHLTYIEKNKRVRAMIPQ

T5: FBF-2 RBD+CT;LST-1 19-98 (Caenorhabditis elegans;Caenorhabditis …, UniProt Q09312;P91820 164-632;19-98, |)
T5 sequence 1: T1 sequence
T5 sequence 2: T4 sequence

T6: FBF-2 RBD;LST-1 19-98 (Caenorhabditis elegans;Caenorhabditis …, UniProt Q09312;P91820 164-575;19-98, |)
T6 sequence 1: T2 sequence
T6 sequence 2: T4 sequence

T7: FBF-2 RBD;LST-1 19-98 S74C (Caenorhabditis elegans;Caenorhabditis …, UniProt Q09312;P91820 164-575;19-98, |S74C)
T7 sequence 1: T2 sequence
T7 sequence 2: T4 sequence with S56C

T8: C. elegans FBF-2 RBD+CT (residues 164-632) (C. elegans, UniProt Q09312 164-632)
T8 construct: His6-SUMO tag removed with Ulp1; source: E. coli BL21-CodonPlus (DE3)-RIL, purified (Ni-NTA, heparin, Superdex 75); not shown: His6-SUMO, N-terminal, cleaved
T8 sequence (looked up): T1 sequence

T9: C. elegans FBF-2 RBD (residues 164-575) (C. elegans, UniProt Q09312 164-575)
T9 construct: His-SUMO tag cleaved with TEV protease (the insert came from an earlier pGEX6p FBF-2 RBD construct); source: E. coli, purified as FBF-2 RBD+CT (Ni-NTA, heparin, Superdex 75); for SEC-MALS and cryo-EM coexpressed with GST-LST-1 19-98 in E. coli BL21-CodonPlus (DE3)-RIL and purified as a complex; not shown: His6-SUMO, N-terminal, cleaved
T9 sequence (looked up): T2 sequence

B1: FBEam-FBEa*m (ssRNA)
RNA: AUCAACAGCCAUACAUCAACAUGCCAUUU
B2: FBEa-FBEa*m (ssRNA)
RNA: AUCAUGUGCCAUACAUCAACAUGCCAUUU
B3: gld-1 FBEa-FBEa* (EMSA) (ssRNA)
RNA: AUCAUGUGCCAUACAUCAUGUUGCCAUUU
B4: gld-1 FBEa* 11-nt (crystal) (ssRNA)
RNA: CAUGUUGCCAU
B5: gld-1 FBEa-FBEa* (FRET) (ssRNA)
RNA: AUCAUGUGCCAUACAUCAUGUUGCCAUUU
B6: LST-1 peptide (residues 19-98) spanning PIM-A and PIM-B (domain or fragment, C. elegans, UniProt P91820 19-98, looked up)
chain: T4 sequence
notes: LST-1 (lateral signaling target 1), C. elegans, residues 19-98 of the N-terminal intrinsically disordered region; Codon-optimised synthetic cDNA in pSMT3; tag removed with Ulp1; also called LST-1^19–98; source: E. coli BL21-CodonPlus (DE3)-RIL, purified (Ni-NTA, heparin, Ni-NTA pass, Superdex 75)
B7: LST-1^19–98 from the GST fusion coexpressed with FBF-2 (domain or fragment, C. elegans, UniProt P91820 19-98, looked up)
chain: T4 sequence
notes: LST-1, C. elegans, residues 19-98; GST removed with TEV protease; also called GST-LST-1^19–98; not shown: GST, N-terminal, cleaved
B8: LST-1^19–98(B^m): K80A, L83A, Y85A (domain or fragment, C. elegans, UniProt P91820 19-98, looked up)
chain: T4 sequence with K62A, L65A, Y67A
notes: LST-1, C. elegans, residues 19-98 with PIM-B mutated; PIM-A intact; also called LST-1 B^m; source: E. coli, purified by the same protocol as the wild-type LST-1 19-98
B9: LST-1^19–98 S74C labeled with Cy5 (domain or fragment, C. elegans, UniProt P91820 19-98, looked up)
chain: T4 sequence with S56C
modifications: Cy5 maleimide dye on C74
notes: LST-1, C. elegans, residues 19-98 with a cysteine in place of S74, five residues upstream of PIM-B; Probably made as the wild-type LST-1 19-98 (His6-SUMO, cleaved); also called C74-labeled LST-1^19–98; source: purified; expression not described for this mutant
B10: LST-1^19–98(A^m): K32A, L35A (domain or fragment, C. elegans, UniProt P91820 19-98, looked up)
chain: T4 sequence with K14A, L17A
notes: LST-1, C. elegans, residues 19-98 with PIM-A mutated; PIM-B intact; also called LST-1 A^m; source: E. coli, purified by the same protocol as the wild-type LST-1 19-98

What was measured:
[1] = target: T1, FBF-2 RBD+CT; assay: EMSA; up to 5 uM FBF-2; EMSA: 5 nM RNA, 10 mM HEPES pH 7.4, 75 mM NaCl, 0.01% Tween 20, 0.1 mg/ml BSA, 0.1 mg/ml yeast tRNA, 2 mM DTT, 4 C overnight; details: protein: recombinant; tags: His6-SUMO, removed by Ulp1; label: 3'-Cy5
[2] = target: T2, FBF-2 RBD; assay: EMSA; apparent Kd, Hill fit; EMSA: 5 nM RNA, 10 mM HEPES pH 7.4, 75 mM NaCl, 0.01% Tween 20, 0.1 mg/ml BSA, 0.1 mg/ml yeast tRNA, 2 mM DTT, 4 C overnight; details: protein: recombinant; tags: His-SUMO, removed by TEV; label: 3'-Cy5
[3] = target: T1, FBF-2 RBD+CT; assay: as above; details: protein: recombinant; tags: His6-SUMO, removed by Ulp1; label: 3'-Cy5
[4] = target: T3, FBF-2 RBD+CT L610A; assay: as above; details: protein: recombinant; label: 3'-Cy5
[5] = target: T4, LST-1 19-98; assay: EMSA; 10 uM LST-1 19-98; nonspecific intermediate band, seen with FBF-2 present; EMSA: 5 nM RNA, 10 mM HEPES pH 7.4, 75 mM NaCl, 0.01% Tween 20, 0.1 mg/ml BSA, 0.1 mg/ml yeast tRNA, 2 mM DTT, 4 C overnight; details: protein: recombinant; tags: His6-SUMO removed by Ulp1; GST removed by TEV when coexpressed; label: 3'-Cy5
[6] = target: T5, FBF-2 RBD+CT;LST-1 19-98; assay: EMSA; 10 uM LST-1 19-98; apparent Kd; EMSA: 5 nM RNA, 10 mM HEPES pH 7.4, 75 mM NaCl, 0.01% Tween 20, 0.1 mg/ml BSA, 0.1 mg/ml yeast tRNA, 2 mM DTT, 4 C overnight; details: protein: recombinant;recombinant; tags: His6-SUMO, removed by Ulp1;His6-SUMO removed by Ulp1; GST removed by TEV when coexpressed; chain copies: 2;1; label: 3'-Cy5
[7] = target: T6, FBF-2 RBD;LST-1 19-98; assay: as above; details: protein: recombinant;recombinant; tags: His-SUMO, removed by TEV;His6-SUMO removed by Ulp1; GST removed by TEV when coexpressed; chain copies: 2;1; label: 3'-Cy5
[8] = target: T2, FBF-2 RBD; assay: X-ray crystallography; 2.2 A; EMSA: 5 nM RNA, 10 mM HEPES pH 7.4, 75 mM NaCl, 0.01% Tween 20, 0.1 mg/ml BSA, 0.1 mg/ml yeast tRNA, 2 mM DTT, 4 C overnight; details: protein: recombinant; tags: His-SUMO, removed by TEV
[9] = target: T7, FBF-2 RBD;LST-1 19-98 S74C; assay: FRET; 2 uM FBF-2 RBD; higher FRET than S26C; EMSA: 5 nM RNA, 10 mM HEPES pH 7.4, 75 mM NaCl, 0.01% Tween 20, 0.1 mg/ml BSA, 0.1 mg/ml yeast tRNA, 2 mM DTT, 4 C overnight; details: protein: recombinant;recombinant; tags: His-SUMO, removed by TEV;Cy5-maleimide on C74; chain copies: 2;1; label: 5'-Cy3
[10] = target: T8, C. elegans FBF-2 RBD+CT (residues …); assay: ITC; LST-1 variant (100-400 µM) titrated from the syringe into the cell with FBF-2 (10-30 µM); 20 °C; 20 mM HEPES pH 7.4, 150 mM NaCl, 0.5 mM TCEP; no RNA; one-site model; apparent constants; two technical replicates; details: both partners purified
[11] = target: T9, C. elegans FBF-2 RBD (residues 164-575); assay: as above; details: both partners purified
[12] = target: T8, C. elegans FBF-2 RBD+CT (residues …); assay: cell-based or functional assay
[13] = target: T8, C. elegans FBF-2 RBD+CT (residues …); assay: SEC-MALS; co-purified FBF-2 RBD+CT or RBD/LST-1 19-98 complex (~30 µM) with 29-nt gld-1 FBEa-FBEa* RNA on Superdex-200 10/300 GL; 20 mM HEPES pH 7.4, 150 mM NaCl, 2 mM DTT; details: both partners purified
[14] = target: T9, C. elegans FBF-2 RBD (residues 164-575); assay: as above; details: both partners purified
[15] = target: T9, C. elegans FBF-2 RBD (residues 164-575); assay: FRET or BRET; 2 µM unlabeled FBF-2 RBD pre-incubated with Cy5-labeled LST-1 19-98 (20, 40, 80 nM), then 20 nM 5'-Cy3 gld-1 FBEa-FBEa* RNA; room temperature; FRET from Cy3 on the RNA to Cy5 on LST-1; details: both partners purified

| Binder | Kd [10] | dH [10] | stoichiometry N [10] | Kd [11] | dH [11] | stoichiometry N [11] | other results |
| --- | --- | --- | --- | --- | --- | --- | --- |
| B1 |  |  |  |  |  |  | binding result [1]: no binding |
| B2 |  |  |  |  |  |  | Kd [2]: 145 ± 4 nM; Kd [3]: 1190 ± 9 nM |
| B3 |  |  |  |  |  |  | Kd [2]: 131 ± 10 nM; Kd [4]: 80 ± 11 nM; Kd [3]: 435 ± 25 nM; binding result [5]: binds; Kd [6]: 109 ± 2 nM; Kd [7]: 107 ± 3 nM |
| B4 |  |  |  |  |  |  | binding result [8]: binds |
| B5 |  |  |  |  |  |  | binding result [9]: binds |
| B6 | 1100 nM and 1900 nM | -14.8 kcal/mol and -10.8 kcal/mol | 0.5 sites and 0.57 sites | 480 nM and 520 nM | -33.2 kcal/mol and -37.5 kcal/mol | 0.46 sites | EMSA: RNA-binding affinity of FBF-2 RBD+CT for the 29-nt FBEa-FBEa* RNA with 10 µM LST-1 19-98 against without LST-1 [12]: 4 fold |
| B7 |  |  |  |  |  |  | stoichiometry N [13]: 2 FBF-2 per LST-1; stoichiometry N [14]: 2 FBF-2 per LST-1 |
| B8 | 24100 nM and 46200 nM | -11.1 kcal/mol and -11.5 kcal/mol | 1.06 sites and 0.89 sites | 1460 nM and 1540 nM | -12.1 kcal/mol and -12.5 kcal/mol | 0.83 sites and 0.86 sites |  |
| B9 |  |  |  |  |  |  | binding result [15]: binds |
| B10 | 3700 nM and 2800 nM | -11.4 kcal/mol and -11.5 kcal/mol | 1.02 sites and 0.98 sites | 130 nM and 120 nM | -15.3 kcal/mol and -16.5 kcal/mol | 1.15 sites and 1.05 sites |  |
